pIC50: −log10 of the molar value.

Holding throughout (experiment): IEDB peptide-MHC binding, purified MHC/competitive/radioactivity; ≥ and ≤ were set here for values at or beyond the usual limits of such assays
Common to all, as to conditions: source organism: Bordetella pertussis

Test [1] concerns the target HLA-B*35:01.
Test [2] has as its target HLA-B*07:02.
For test [3], the target named is HLA-B*44:03.
Test [4] deals with HLA-A*02:01.
The target in test [5] is HLA-B*53:01.

In the case of APNALAWAL, the negative-log IC50 (pIC50) in test [1] is 5.20.
Consider CFGKDLKRP, for which, in test [2], the negative logarithm of the IC50 (pIC50) is 4.16.
With GELMAAQVA, in test [3], the negative logarithm of the IC50 (pIC50) is 6.24.
For GIVIPPKAL, the negative-log IC50 (pIC50) in test [2] is 4.16.
Regarding ITSYVGFSV, in test [4], the negative logarithm of the IC50 (pIC50) was 5.36.
Take IVVEAGELV: the pIC50 in test [4] was 5.01.
With LAAGAGLTL, the pIC50 is 5.13 in test [2] and 4.23 in test [5].
For the sequence LFTQQGGAY, the pIC50 in test [1] was 4.16.
For MESNKDIVI, the pIC50 in test [3] is 5.00.
As to PDAHVPFCF, in test [1], the negative-log IC50 (pIC50) is 4.16.
Regarding RLRKMLYLI, the negative logarithm of the IC50 (pIC50) in test [4] was 4.83.
For the sequence RPQITDAVT, the pIC50 in test [2] was 4.79.
As to RTHGVGASL, the pIC50 in test [2] is 5.80.
Take VPVSEHCTV: the negative logarithm of the IC50 (pIC50) in test [5] is 4.16.
WVMTDNSNV: the negative-log IC50 (pIC50) in test [4] is 4.53.

Values taken from the Immune Epitope Database (IEDB).
